For test [1], the target named is TSHR coated onto tubes (TSHR coated tubes) (human) (UniProt P16473). Description: TSHR coated tubes, in presence of HBD pool.
For test [2] the target is unchanged. Briefly: TSHR coated tubes.
The target is the same in test [3]. Description: TSHR coated tubes, in the presence of HBD pool (Table 5).
Test [4] has the same target. Briefly: TSHR coated tubes, in the presence of HBD pool (Tables 4a, 4b).
Test [5] has as its target TSHR coated on ELISA plate wells (RSR Ltd) (human) (UniProt P16473). Briefly: ELISA on TSHR-coated wells, inhibition of TSH-biotin binding. Background: ELISA stands for enzyme-linked immunosorbent assay.
Test [6] shares this target. Description: ELISA on TSHR-coated wells, inhibition of 5C9 IgG-biotin binding.
For test [7] the target is unchanged. Description: ELISA on TSHR-coated wells, TSH-biotin binding with HBD pool (no competitor).

As for 125I-labelled TSH (ligand), the % binding of labelled tracer in test [1] is 12%. This substance also yielded an average % binding of labelled tracer in test [2] of 14%. Besides, the % of labelled protein bound was found to be 15% in test [3] and 12% in test [4].
On to “M22 IgG, human monoclonal thyroid stimulating autoantibody (hMAb TSHR1)”, for which the % inhibition stood at 15% in test [5] and 28% in test [6].
On to TSH-biotin (ligand), for which the Abs 450 nm in test [7] is 2.14 Abs 450 nm.

As a reminder, the % inhibition is the change of the read-out against control, counted positive when it falls.
